These results are taken from patent publication US20020062008A1.

Experiment [1] has as its target two domain VCAM-1/Fc with substitution at residue 40 (UniProt P19320). Briefly: adhesion of αdβ2 CHO cells to immobilized mutant VCAM-1/Fc.
Experiment [2] concerns the target LFA-1 leucine zipper fusion protein (soluble CD11a/CD18) (UniProt P20701). Kind of experiment: ELISA as printed: αd/CD18 and immobilized CD11a/CD18. On the technique in general: An ELISA detects its analyte on a solid surface through an enzyme-linked reagent.
For experiment [3], the target named is immobilized CD11b/CD18 (UniProt P05107). Kind of experiment: ELISA as printed: αd/CD18 and immobilized CD11b/CD18.
Experiment [4] deals with soluble ICAM-R/IgG1 fusion protein (UniProt P32942). Kind of experiment: ELISA, soluble integrin supernatant on immobilized ICAM-R/Ig, non-blocking antibody detection.
soluble ICAM-R/IgG1 fusion protein, sequence (P32942 30-485 limits assumed): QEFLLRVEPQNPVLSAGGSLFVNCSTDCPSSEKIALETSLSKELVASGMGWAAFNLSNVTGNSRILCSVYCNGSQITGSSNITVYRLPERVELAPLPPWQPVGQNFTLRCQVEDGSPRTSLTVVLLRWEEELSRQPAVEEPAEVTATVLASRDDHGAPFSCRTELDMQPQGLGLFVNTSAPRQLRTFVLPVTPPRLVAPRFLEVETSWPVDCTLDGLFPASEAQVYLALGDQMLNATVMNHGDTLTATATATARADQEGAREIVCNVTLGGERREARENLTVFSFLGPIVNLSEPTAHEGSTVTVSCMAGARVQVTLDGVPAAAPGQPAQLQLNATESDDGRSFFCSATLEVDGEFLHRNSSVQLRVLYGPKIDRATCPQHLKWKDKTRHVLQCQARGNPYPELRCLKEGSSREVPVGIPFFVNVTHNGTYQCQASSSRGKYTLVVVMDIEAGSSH
Experiment [5] deals with recombinant VCAM-1 (commercial preparation, R & D Systems), immobilized (UniProt P19320). Briefly: cell-based or functional assay.
recombinant VCAM-1 (commercial preparation, R & D Systems), immobilized, sequence (P19320 25-698 limits assumed): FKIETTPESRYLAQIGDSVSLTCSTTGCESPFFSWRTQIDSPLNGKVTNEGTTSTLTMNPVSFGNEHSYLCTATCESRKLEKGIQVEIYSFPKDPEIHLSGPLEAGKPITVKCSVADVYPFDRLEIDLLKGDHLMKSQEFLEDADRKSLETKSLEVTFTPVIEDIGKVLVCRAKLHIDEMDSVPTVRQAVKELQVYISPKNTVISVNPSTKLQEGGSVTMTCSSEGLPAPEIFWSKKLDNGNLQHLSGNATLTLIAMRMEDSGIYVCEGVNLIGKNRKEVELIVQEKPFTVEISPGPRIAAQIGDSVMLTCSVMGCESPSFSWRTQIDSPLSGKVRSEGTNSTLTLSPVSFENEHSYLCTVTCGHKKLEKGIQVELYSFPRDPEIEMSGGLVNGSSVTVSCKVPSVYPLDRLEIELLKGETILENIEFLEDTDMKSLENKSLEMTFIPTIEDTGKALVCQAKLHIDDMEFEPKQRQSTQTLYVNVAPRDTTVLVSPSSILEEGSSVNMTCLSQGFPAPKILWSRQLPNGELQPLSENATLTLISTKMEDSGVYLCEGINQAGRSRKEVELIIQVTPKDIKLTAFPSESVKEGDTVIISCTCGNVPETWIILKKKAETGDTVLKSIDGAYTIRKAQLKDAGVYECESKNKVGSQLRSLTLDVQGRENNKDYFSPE

two domain VCAM-1/Fc with substitution at residue 40, sequence (P19320 25-220): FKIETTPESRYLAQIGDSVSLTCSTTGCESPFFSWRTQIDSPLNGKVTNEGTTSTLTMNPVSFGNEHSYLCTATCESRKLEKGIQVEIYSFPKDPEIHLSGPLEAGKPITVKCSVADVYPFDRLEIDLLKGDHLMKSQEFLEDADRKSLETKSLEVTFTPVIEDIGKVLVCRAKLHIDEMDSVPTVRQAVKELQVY

“human αd/CD18 heterodimer expressed on transfected cells (COS, CHO, JY) (from UniProt P05107 23-769) (receptor)”: the binding relative to wild-type VCAM-1 in experiment [1] turned out to be 50%.

Consider “soluble human αd/CD18 leucine zipper heterodimer (from UniProt P05107 23-700) (receptor)”, for which the fold greater than background binding is 5 fold in experiment [2] and 15 fold in experiment [3]. The substance further came in with a fold greater than control well in experiment [4] of 10 fold. As for “α4 integrins on human eosinophils (from UniProt P13612 34-1032; P05556 21-798) (receptor)”, the binding rate of IL-5 cultured eosinophils to immobilized VCAM-1 in the presence of a monoclonal antibody against α4 in experiment [5] was 18.1%.
